Experimental data published in US20170260251A1 (ANSUN BIOPHARMA, published 2017).

Columns and labels:
mouse thrombin = target: T1, mouse thrombin (mouse, UniProt P19221 325-618); experiment: protease inhibition constant Ki, mouse enzyme
T1 construct: also called Thrombin (mice)

[1] = target: T2, mouse coagulation factor Xa (mouse, UniProt O88947 41-180; O88947 232-481, limits assumed); experiment: protease inhibition constant Ki, mouse enzyme
T2 construct: also called Xa (mice)

[2] = target: T3, mouse coagulation factor IXa (mouse, UniProt P16294 47-192; P16294 237-471); experiment: protease inhibition constant Ki, mouse enzyme
T3 construct: also called IXa (mice)

mouse kallikrein = target: T4, mouse kallikrein (mouse, UniProt P26262 20-638, limits assumed); experiment: protease inhibition constant Ki, mouse enzyme
T4 construct: also called Kallikrein (mice)

mouse plasmin = target: T5, mouse plasmin (mouse, UniProt P20918 98-812); experiment: protease inhibition constant Ki, mouse enzyme
T5 construct: also called Plasmin (mice)

human kallikrein = human kallikrein (human, UniProt P03952 20-638, limits assumed); experiment: protease inhibition constant Ki, human enzyme
[3] = target: human coagulation factor Xa (human, UniProt P00742 41-179; P00742 235-488, limits assumed); experiment: protease inhibition constant Ki, human enzyme
human plasmin = human plasmin (human, UniProt P00747 97-810); experiment: protease inhibition constant Ki, human enzyme
human thrombin = human thrombin (human, UniProt P00734 328-622); experiment: protease inhibition constant Ki, human enzyme
[4] = target: T6, human coagulation factor VIIa (human, UniProt P08709 61-466); experiment: protease inhibition constant Ki, human enzyme
T6 sequence (looked up): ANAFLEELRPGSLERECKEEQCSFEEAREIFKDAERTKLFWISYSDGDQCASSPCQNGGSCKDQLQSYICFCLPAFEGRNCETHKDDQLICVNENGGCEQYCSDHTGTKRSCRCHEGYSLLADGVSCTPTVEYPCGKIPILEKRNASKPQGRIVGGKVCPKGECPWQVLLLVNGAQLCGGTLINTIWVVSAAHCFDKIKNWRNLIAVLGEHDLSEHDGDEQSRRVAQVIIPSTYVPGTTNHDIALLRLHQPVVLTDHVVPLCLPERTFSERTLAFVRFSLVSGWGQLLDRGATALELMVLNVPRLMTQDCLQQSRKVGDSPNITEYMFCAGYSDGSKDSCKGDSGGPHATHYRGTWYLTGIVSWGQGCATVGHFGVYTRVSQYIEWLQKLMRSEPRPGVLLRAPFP

Sequence of human plasmin (P00747 97-810 limits assumed): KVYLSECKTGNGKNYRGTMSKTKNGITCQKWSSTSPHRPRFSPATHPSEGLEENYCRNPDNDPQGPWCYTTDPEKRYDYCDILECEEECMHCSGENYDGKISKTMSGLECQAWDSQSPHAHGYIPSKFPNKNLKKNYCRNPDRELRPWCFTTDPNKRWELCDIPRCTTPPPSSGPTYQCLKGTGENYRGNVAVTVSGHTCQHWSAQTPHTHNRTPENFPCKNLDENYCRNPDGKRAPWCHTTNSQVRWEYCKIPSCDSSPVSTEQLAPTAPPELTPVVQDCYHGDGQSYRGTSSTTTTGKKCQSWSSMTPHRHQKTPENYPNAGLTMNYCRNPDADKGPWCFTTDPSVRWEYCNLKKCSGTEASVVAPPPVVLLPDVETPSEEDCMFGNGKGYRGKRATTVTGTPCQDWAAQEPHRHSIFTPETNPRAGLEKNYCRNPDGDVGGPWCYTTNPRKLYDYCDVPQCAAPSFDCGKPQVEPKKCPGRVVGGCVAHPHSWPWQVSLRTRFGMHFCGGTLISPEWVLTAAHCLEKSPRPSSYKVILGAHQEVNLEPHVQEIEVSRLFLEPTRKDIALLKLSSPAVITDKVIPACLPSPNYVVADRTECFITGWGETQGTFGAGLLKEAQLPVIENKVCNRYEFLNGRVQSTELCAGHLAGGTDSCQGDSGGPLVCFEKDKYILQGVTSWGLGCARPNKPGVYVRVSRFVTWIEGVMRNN
Sequence of human kallikrein (P03952 20-638 limits assumed): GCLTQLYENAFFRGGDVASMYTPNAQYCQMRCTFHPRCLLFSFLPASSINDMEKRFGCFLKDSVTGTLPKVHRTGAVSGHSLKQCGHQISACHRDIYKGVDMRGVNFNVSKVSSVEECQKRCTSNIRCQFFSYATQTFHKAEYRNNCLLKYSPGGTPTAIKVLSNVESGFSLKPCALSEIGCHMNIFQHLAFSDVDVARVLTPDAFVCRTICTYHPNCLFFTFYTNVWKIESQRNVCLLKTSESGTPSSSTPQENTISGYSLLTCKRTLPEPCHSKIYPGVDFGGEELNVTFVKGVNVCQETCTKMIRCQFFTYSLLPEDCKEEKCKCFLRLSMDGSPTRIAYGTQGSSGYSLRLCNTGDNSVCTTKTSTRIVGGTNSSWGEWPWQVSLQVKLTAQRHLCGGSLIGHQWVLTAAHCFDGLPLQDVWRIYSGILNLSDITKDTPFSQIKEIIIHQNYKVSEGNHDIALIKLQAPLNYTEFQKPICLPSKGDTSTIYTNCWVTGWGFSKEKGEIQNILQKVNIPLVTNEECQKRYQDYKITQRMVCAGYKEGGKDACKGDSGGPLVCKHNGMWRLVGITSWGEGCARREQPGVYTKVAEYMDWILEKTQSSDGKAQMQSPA
Sequence of human coagulation factor Xa (P00742 41-179 limits assumed, chain 1 of 2): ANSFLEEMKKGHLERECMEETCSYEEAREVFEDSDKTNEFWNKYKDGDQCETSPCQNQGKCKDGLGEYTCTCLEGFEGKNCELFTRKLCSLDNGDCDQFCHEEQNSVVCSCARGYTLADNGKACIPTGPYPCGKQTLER
Sequence of human coagulation factor Xa (P00742 235-488 limits assumed, chain 2 of 2): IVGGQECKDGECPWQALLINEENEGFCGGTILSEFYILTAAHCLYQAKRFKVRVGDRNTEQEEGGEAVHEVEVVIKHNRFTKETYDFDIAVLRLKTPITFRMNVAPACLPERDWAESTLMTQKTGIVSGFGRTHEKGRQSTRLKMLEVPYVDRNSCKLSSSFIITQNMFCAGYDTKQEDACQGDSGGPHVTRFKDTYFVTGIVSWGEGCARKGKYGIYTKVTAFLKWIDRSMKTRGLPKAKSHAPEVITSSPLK
T3 sequence (P16294 47-192 limits assumed, chain 1 of 2): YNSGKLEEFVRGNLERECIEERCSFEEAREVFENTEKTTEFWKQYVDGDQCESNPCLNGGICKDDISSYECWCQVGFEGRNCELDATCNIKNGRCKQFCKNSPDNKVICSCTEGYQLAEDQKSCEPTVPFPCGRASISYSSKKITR
T3 sequence (P16294 237-471 limits assumed, chain 2 of 2): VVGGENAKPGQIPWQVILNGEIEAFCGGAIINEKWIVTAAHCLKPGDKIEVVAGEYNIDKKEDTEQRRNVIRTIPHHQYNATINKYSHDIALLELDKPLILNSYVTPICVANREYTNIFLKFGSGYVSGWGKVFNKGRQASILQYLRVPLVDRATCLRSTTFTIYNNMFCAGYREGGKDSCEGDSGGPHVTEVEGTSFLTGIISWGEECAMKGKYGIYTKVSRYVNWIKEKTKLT
T2 sequence (O88947 41-180 limits assumed, chain 1 of 2): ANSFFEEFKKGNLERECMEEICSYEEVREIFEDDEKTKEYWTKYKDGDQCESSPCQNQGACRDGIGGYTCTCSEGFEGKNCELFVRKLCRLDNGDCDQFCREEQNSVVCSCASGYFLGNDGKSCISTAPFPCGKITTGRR
T2 sequence (O88947 232-481 limits assumed, chain 2 of 2): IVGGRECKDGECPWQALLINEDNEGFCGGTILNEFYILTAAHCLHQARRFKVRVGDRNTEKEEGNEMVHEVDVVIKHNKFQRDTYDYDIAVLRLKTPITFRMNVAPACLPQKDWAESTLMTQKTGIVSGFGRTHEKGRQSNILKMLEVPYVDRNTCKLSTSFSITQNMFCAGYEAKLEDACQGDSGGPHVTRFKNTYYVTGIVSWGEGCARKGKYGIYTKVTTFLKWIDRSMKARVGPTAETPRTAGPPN
T4 sequence (P26262 20-638 limits assumed): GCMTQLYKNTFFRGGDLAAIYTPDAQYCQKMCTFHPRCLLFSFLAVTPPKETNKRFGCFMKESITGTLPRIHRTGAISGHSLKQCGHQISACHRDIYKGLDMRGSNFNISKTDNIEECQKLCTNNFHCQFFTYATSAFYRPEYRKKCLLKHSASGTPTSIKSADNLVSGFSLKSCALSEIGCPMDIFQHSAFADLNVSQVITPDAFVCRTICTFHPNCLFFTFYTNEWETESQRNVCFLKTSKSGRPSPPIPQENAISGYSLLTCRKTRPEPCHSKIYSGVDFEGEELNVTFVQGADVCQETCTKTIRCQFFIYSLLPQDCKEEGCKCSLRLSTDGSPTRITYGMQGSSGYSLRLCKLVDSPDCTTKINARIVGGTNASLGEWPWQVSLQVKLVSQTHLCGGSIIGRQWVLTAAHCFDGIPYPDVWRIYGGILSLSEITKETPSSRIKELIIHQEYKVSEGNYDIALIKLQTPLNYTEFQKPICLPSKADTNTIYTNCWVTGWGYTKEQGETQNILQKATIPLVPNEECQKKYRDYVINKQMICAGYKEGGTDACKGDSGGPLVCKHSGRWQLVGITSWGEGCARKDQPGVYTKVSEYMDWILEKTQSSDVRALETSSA
T5 sequence (P20918 98-812 limits assumed): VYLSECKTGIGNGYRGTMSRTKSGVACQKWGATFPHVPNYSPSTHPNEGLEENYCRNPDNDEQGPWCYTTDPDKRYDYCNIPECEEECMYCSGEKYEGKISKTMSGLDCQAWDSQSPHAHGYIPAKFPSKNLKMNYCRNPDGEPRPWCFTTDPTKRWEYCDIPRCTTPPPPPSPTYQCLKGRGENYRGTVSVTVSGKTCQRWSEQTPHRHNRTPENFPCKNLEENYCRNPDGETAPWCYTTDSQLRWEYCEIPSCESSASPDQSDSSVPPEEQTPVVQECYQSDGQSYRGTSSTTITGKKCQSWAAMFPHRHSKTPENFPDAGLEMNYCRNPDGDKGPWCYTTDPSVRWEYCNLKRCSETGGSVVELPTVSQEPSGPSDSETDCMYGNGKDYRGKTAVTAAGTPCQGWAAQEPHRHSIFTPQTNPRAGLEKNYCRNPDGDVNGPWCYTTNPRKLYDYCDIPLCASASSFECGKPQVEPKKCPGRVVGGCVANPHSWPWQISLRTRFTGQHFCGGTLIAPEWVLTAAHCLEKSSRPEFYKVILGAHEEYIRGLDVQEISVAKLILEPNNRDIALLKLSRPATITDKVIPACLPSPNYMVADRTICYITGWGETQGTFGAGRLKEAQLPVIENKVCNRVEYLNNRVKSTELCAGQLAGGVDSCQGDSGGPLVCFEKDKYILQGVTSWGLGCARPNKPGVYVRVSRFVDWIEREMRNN

- Ki (mouse thrombin): 11.6 nM
- Ki [1]: 0.2 nM
- Ki [2]: 0.6 nM
- Ki (mouse kallikrein): 0.2 nM
- Ki (mouse plasmin): 1.2 nM
- Ki (human kallikrein): 0.07 nM
- Ki [3]: 0.2 nM
- Ki (human plasmin): 18.7 nM
- Ki (human thrombin): 1.6 nM
- Ki [4]: 0.2 nM
B1: Ecotin variant NB141 (M84R/S82H) (other)
chain: AESVQPLEKIAPYPQAEKGMKRQVIQLTPQEDESTLKVELLIGQTLEVDCNLHRLGGKLENKTLEGWGYDYYVFDKVSSPVHTRMACPDGKKEKKFVTAYLGDAGMLRYNSKLPIVVYTPDNVDVKYRVWKAEEKIDNAVVR
